# Tested on: HEK293T cells
# Assay: Label-free MS proteome of stable cell lines expressing HPV16 E6 or E6ΔPBM
# Assay type: cell-based, human
# Details: protein level; for Difference log2 E6/Ctrl / Ratio E6/Ctrl: E6 cell line vs control; for Difference log2 dPBM/E6 / Ratio dPBM/E6: dPBM cell line vs E6 cell line; for Difference log2 dPBM/Ctrl / Ratio dPBM/Ctrl: dPBM cell line vs control
# Method: HEK293T and HeLa cells were authenticated and found 100% identity to ATCC cat. CRL-3216 and ATCC cat. CCL-2, respectively. Jurkat and HaCat cell lines were not authenticated (original source: ECACC and Deutsches Krebsforschungszentrum DKFZ, respectively). HeLa cells were grown in DMEM (1 g/L glucose, Gibco) medium completed with 5% FCS and 40 μg/mL gentamicin, diluted every 3rd/4th day 1/10. HaCat cells were grown in DMEM (1 g/L glucose, Gibco) medium completed with 10% FCS and 40 μg/mL gentamicin, diluted every 3rd/4th day 1/4. Jurkat cells were grown in RPMI (Gibco) medium completed with 10% FCS and 40 μg/mL gentamicin, diluted every 3rd/4th day 1/12. All cells were kept at 37 °C and 5% CO2. For proteomics analyses cells were seeded on T-175 flasks. After they reached confluency, adherent cells were washed with PBS once and collected by scraping with ice-cold lysis buffer (Hepes-KOH pH 7.5 50 mM, NaCl 150 mM, Triton X-100 1%, complete EDTA-free protease inhibitor cocktail 1×, EDTA 2 mM, TCEP 5 mM, glycerol 10%). Jurkat cells were collected by 1000 g × centrifugation, washed once with PBS, then collected by 1000 g × 5 min centrifugation again and lysed in ice-cold lysis buffer. Lysates were sonicated 4 × 20 s with 1 s long pulses on ice, then incubated rotating at 4 °C for 30 min. Lysates were centrifuged at 12,000 rpm 4 °C for 20 min and supernatant was kept for further analysis. Concentration determination was carried out by standard Bradford method (Bio-Rad Protein Assay Dye Reagent #5000006) using BSA (MP BIomedicals #160069) as control on a Bio-Rad SmartSpec 3000 spectrophotometer instrument.
# The samples were precipitated with TCA 20% overnight at 4 °C and centrifuged at 14,000 rpm for 10 min at 4 °C. The protein pellets were washed twice with 1 mL cold acetone and air dried. The protein extracts were solubilized in urea 8 M, reduced with 5 mM TCEP for 30 min, and alkylated with 10 mM iodoacetamide for 30 min in the dark. Double digestion was performed at 37 °C with 500 ng endoproteinase Lys-C for 4 h, followed by fourfold dilution and an overnight digestion with 500 ng trypsin. Peptide mixtures were then desalted on C18 spin-column and dried on Speed-Vacuum.
# Samples were analyzed using an Ultimate 3000 nano-RSLC (Thermo Scientific, San Jose California) coupled in line with a LTQ-Orbitrap ELITE mass spectrometer via a nano-electrospray ionization source (Thermo Scientific, San Jose California). Peptide mixtures were injected in 0.1% TFA on a C18 Acclaim PepMap100 trap-column (75 µm ID × 2 cm, 3 µm, 100 Å, Thermo Fisher Scientific) for 3 min at 5 µL/min with 2% ACN, 0.1% FA in H2O and then separated on a C18 Accucore nano-column (75 µm ID × 50 cm, 2.6 µm, 150 Å, Thermo Fisher Scientific) at 220 nl/min and 38 °C with a 90 min linear gradient from 5% to 30% buffer B (A: 0.1% FA in H2O/B: 99% ACN, 0.1% FA in H2O), regeneration at 5% B. The mass spectrometer was operated in positive ionization mode, in data-dependent mode with survey scans from m/z 350–1500 acquired in the Orbitrap at a resolution of 120,000 at m/z 400. The 20 most intense peaks from survey scans were selected for further fragmentation in the Linear Ion Trap with an isolation window of 2.0 Da and were fragmented by CID with normalized collision energy of 35%. (TOP20CID method) Unassigned and single charged states were excluded from fragmentation. The Ion Target Value for the survey scans (in the Orbitrap) and the MS2 mode (in the Linear Ion Trap) were set to 1E6 and 5E3 respectively and the maximum injection time was set to 100 ms for both scan modes. Dynamic exclusion was set to 20 s after one repeat count with mass width at ±10 ppm.
# Proteins were identified by database searching using SequestHT (Thermo Fisher Scientific) with Proteome Discoverer 2.4 software (PD2.4, Thermo Fisher Scientific) on human FASTA database downloaded from SwissProt (reviewed, release 2020_11_27, 20304 entries, https://www.uniprot.org/). […]
Molecule,Difference log2 E6/Ctrl,Ratio E6/Ctrl,Difference log2 dPBM/E6,Ratio dPBM/E6,Difference log2 dPBM/Ctrl,Ratio dPBM/Ctrl
"CRTAP (protein, UniProt O75718 27-401, looked up) Cartilage-associated protein: QYERYSFRSFPRDELMPLESAYRHALDKYSGEHWAESVGYLEISLRLHRLLRDSEAFCHRNCSAAPQPEPAAGLASYPELRLFGGLLRRAHCLKRCKQGLPAFRQSQPSREVLADFQRREPYKFLQFAYFKANNLPKAIAAAHTFLLKHPDDEMMKRNMAYYKSLPGAEDYIKDLETKSYESLFIRAVRAYNGENWRTSITDMELALPDFFKAFYECLAACEGSREIKDFKDFYLSIADHYVEVLECKIQCEENLTPVIGGYPVEKFVATMYHYLQFAYYKLNDLKNAAPCAVSYLLFDQNDKVMQQNLVYYQYHRDTWGLSDEHFQPRPEAVQFFNVTTLQKELYDFAKENIMDDDEGEVVEYVDDLLELEETS",1.355,2.558,-3.496,0.08864,-2.141,0.2267
"ATP5IF1 (protein, UniProt Q9UII2 26-106, looked up) ATPase inhibitor, …: GSDQSENVDRGAGSIREAGGAFGKREQAEEERYFRAQSREQLAALKKHHEEEIVHHKKEIERLQKEIERHKQKIKMLKHDD",4.465,22.0916,-4.258,0.05227,0.2076,1.155
"FERMT2 (protein, UniProt Q96AC1 1-680, looked up) Fermitin family homolog 2: MALDGIRMPDGCYADGTWELSVHVTDLNRDVTLRVTGEVHIGGVMLKLVEKLDVKKDWSDHALWWEKKRTWLLKTHWTLDKYGIQADAKLQFTPQHKLLRLQLPNMKYVKVKVNFSDRVFKAVSDICKTFNIRHPEELSLLKKPRDPTKKKKKKLDDQSEDEALELEGPLITPGSGSIYSSPGLYSKTMTPTYDAHDGSPLSPTSAWFGDSALSEGNPGILAVSQPITSPEILAKMFKPQALLDKAKINQGWLDSSRSLMEQDVKENEALLLRFKYYSFFDLNPKYDAIRINQLYEQAKWAILLEEIECTEEEMMMFAALQYHINKLSIMTSENHLNNSDKEVDEVDAALSDLEITLEGGKTSTILGDITSIPELADYIKVFKPKKLTLKGYKQYWCTFKDTSISCYKSKEESSGTPAHQMNLRGCEVTPDVNISGQKFNIKLLIPVAEGMNEIWLRCDNEKQYAHWMAACRLASKGKTMADSSYNLEVQNILSFLKMQHLNPDPQLIPEQITTDITPECLVSPRYLKKYKNKQITARILEAHQNVAQMSLIEAKMRFIQAWQSLPEFGITHFIARFQGGKKEELIGIAYNRLIRMDASTGDAIKTWRFSNMKQWNVNWEIKMVTVEFADEVRLSFICTEVDCKVVHEFIGGYIFLSTRAKDQNESLDEEMFYKLTSGWV",0.234,1.176,-3.123,0.1148,-2.889,0.135

# — article PMC9482650, “Quantitative fragmentomics allow affinity mapping of interactomes” (Nature Communications, 2022)
